From patent US20210309981, “VARIANT TYPE V CRISPR/CAS EFFECTOR POLYPEPTIDES AND METHODS OF USE THEREOF” (The Regents of the University of California, published 2021)

Biological target: T1, dCasX (D672A-E769A-D935A) (Deltaproteobacteria, D672A,E769A,D935A)
T1 chain: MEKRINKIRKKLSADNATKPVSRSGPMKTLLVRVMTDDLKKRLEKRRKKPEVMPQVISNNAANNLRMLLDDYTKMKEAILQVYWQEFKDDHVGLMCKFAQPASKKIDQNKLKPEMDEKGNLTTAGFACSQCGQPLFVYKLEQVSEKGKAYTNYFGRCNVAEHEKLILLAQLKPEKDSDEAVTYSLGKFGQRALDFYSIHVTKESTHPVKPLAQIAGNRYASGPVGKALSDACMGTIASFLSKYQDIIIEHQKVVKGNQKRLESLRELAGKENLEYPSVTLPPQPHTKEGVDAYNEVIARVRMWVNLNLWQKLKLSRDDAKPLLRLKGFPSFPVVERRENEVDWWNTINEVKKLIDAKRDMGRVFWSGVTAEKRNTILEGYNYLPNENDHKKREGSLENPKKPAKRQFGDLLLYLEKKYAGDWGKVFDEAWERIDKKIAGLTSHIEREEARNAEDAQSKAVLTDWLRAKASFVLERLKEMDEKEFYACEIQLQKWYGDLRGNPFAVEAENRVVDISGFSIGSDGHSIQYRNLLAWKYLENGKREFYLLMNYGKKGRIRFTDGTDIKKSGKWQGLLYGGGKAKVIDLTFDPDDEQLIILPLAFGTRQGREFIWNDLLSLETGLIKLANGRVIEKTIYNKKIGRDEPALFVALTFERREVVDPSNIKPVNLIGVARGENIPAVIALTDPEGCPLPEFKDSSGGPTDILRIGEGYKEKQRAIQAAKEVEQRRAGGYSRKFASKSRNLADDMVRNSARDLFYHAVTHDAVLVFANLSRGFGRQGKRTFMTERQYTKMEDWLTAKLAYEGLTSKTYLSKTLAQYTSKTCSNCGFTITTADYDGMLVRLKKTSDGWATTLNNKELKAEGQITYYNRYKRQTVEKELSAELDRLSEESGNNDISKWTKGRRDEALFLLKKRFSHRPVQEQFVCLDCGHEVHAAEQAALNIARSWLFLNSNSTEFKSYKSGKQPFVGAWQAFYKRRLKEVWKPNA
Assay: structure; binary CasX-gRNA complex by SEC and cryo-EM; wild-type vs triple mutant not explicitly stated
Settings: tags: 2CT-10 vector; tag removed by TEV

B1: CasX sgRNA (in vitro transcribed; listed sequence is the DNA transcription template) (ssRNA)
RNA: GGCGCGUUUAUUCCAUUACUUUGGAGCCAGUCCCAGCGACUAUGUCGUAUGGACGAAGCGCUUAUUUAUCGGAGAGAAACCGAUAAGUAAAACGCAUCAAAGUCCUGCAGCAGAAAAUCAAA
B1: binds.
